Measurements from patent US11358986B2, “IL-2RBETA binding compounds” (MEDIKINE, INC., priority 2018, dated 2022).
Ends that are not written are not given here.

How the values were obtained:
[1] = molecular target: T1, IL-2Rγc subunit (Homo sapiens, UniProt P31785); assay: Competitive binding of synthetic test peptides against phage clones on IL-2Rγc; details: for Competition with phage clone peptide SEQ ID NO: 198: phage clone of IL-2Rγc family 1A; for Competition with phage clone peptide SEQ ID NO: 224: phage clone of IL-2Rγc family 1B; for Competition with phage clone peptide SEQ ID NO: 236: phage clone of IL-2Rγc family 2; for Competition with phage clone peptide SEQ ID NO: 248 or 1051: phage clone of IL-2Rγc family 3; for Competition with phage clone peptide SEQ ID NO: 266: phage clone of IL-2Rγc family 4; for Competition with phage clone peptide SEQ ID NO: 948: phage clone of IL-2Rγc family 5
T1 construct: Fc; purchased ACRObiosystems, Inc. ILG-H5256
T1 sequence (P31785 23-254): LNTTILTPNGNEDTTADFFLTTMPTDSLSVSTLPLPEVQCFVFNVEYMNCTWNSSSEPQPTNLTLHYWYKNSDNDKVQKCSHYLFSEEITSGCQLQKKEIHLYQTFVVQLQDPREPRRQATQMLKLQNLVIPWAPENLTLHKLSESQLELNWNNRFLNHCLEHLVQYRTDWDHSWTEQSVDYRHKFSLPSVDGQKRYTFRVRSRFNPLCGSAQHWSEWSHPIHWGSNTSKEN
Experimental: (§1) Competitive binding assays were performed to characterize the IL-2R binding sites for certain IL-2Rβ and to IL-2Rγc ligands.
(§2) Phage binding to the immobilized IL-2Rβ ECD was detected by staining with antibody against phage coat proteins (anti-phage Ab), staining with labeled secondary antibody against the anti-phage Ab, and scored by reading OD in the microtiter plate optical reader.
(§3) The ELISA signal for each phage binding in the presence and absence of the test peptides was compared to determine which synthetic peptides competed with which phage peptides for binding to the IL-2Rβ subunit.
A similar study was performed to evaluate the binding of IL-2Rγc ligands.

[2] = system: NK-92 cells; assay: STAT5 phosphorylation in NK-92 cells; type: cell-based, human; details: Western Blot, 0.1, 1 and 10 μM, 30 min
Experimental: NK-92 cells were seeded in a 24-well plate at 4×10^5 cells, in 1 mL starvation medium (SM), and incubated overnight at 37° C., 5% CO2. The starvation medium contained RPMI 1640+20% FBS+2 mM L-glutamine+1 mM NaPyr+10 mM HEPES+0.1 mM BME (no rhIL-2 supplement).
Treatment mixtures were of 1 pg/mL Anti-hIL-2 neutralizing antibody (0.2 mg/mL stock) or goat IgG control (1 mg/mL stock) were prepared.
The treatment mixtures and the antibody mix were added to the cells for 30 min at 37° C., 5% CO2. Each sample was then transferred to a 1.5 mL microfuge tube and spun down at 1,500 RPM for 5 minutes. The cells were washed in 1 mL PBS and centrifuged again.
A phosphatase and protease inhibitor cocktail (Thermo #78442) were added to mPER buffer at a 1:100 dilution. After the cells were pelleted, 50 μL of mPER buffer was added to each sample and pipetted repeatedly to homogenize.
The lysates were centrifuged at 14,000 RPM for 5 min at RT. The supernatants were transferred to clean tubes and stored frozen at −80° C.
The treatment reagents included Anti-STAT5 Antibody (rabbit), Cell Signaling No. 94205S; Anti-pSTAT5 Antibody (rabbit), Cell Signaling No. 4322S; and Goat anti-rabbit IgG-HRP, Jackson Immunoresearch No. 111-035-144.

[3] = molecular target: T2, extracellular domain (ECD) of IL-2Rβ (Homo sapiens, UniProt P14784); assay: Competitive binding of synthetic test peptides against phage clones on immobilized IL-2Rβ ECD; details: for Competition with phage clone peptide SEQ ID NO: 58: phage clone of IL-2β family 1; for Competition with phage clone peptide SEQ ID NO: 170: phage clone of IL-2β family 2A; for Competition with phage clone peptide SEQ ID NO: 83: phage clone of IL-2β family 2B; for Competition with phage clone peptide SEQ ID NO: 1034 or 1084: phage clone of IL-2β family 2C; for Competition with phage clone peptide SEQ ID NO: 1044: phage clone of IL-2β family 4
T2 construct: Fc; purchased ACRObiosystems, Inc. ILB-H5253
T2 sequence (P14784 27-239): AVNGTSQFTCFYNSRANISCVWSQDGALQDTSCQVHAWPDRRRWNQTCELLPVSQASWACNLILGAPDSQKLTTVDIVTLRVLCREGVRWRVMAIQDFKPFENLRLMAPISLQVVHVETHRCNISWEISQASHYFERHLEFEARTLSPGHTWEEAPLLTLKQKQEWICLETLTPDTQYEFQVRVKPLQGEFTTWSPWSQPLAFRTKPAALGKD
Experimental: as §1
Representative phage clones displaying peptides from IL-2Rβ ligand families were bound to the extracellular domain (ECD) of IL-2Rβ immobilized in microtiter wells. Phage binding was conducted in the presence and absence of synthetic test peptides to determine if phage peptides and test peptides competed for binding to the same sites on IL-2Rβ. Synthetic test peptides were selected to represent peptides from IL-2Rβ ligand families, as well positive and negative control peptides.
as §2, §3

Row | Substance | Competition with phage clone peptide SEQ ID NO: 198 [1] | Competition with phage clone peptide SEQ ID NO: 224 [1] | Competition with phage clone peptide SEQ ID NO: 236 [1] | Competition with phage clone peptide SEQ ID NO: 248 or 1051 [1] | Competition with phage clone peptide SEQ ID NO: 266 [1] | Competition with phage clone peptide SEQ ID NO: 948 [1] | Competition with phage clone peptide SEQ ID NO: 58 [3] | Competition with phage clone peptide SEQ ID NO: 170 [3] | Competition with phage clone peptide SEQ ID NO: 83 [3] | Competition with phage clone peptide SEQ ID NO: 1034 or 1084 [3] | Competition with phage clone peptide SEQ ID NO: 1044 [3] | also measured
1 | 948 (SLLKCYNASTCASVF) [compound 948] |  |  |  |  |  |  |  |  |  |  |  | competition for binding to the binding site of the IL-2Rγc subunit with the group of IL-2Rγc ligands [1]: does not compete
2 | Compound B: heterodimer of SEQ. ID. NO: 58 and SEQ ID. NO. 237 (chain 1 YDCRIAQVGELCDL; chain 2 LCFSEFLGEWVDCN; cysteine pairing not given here; also: heterodimer) |  |  |  |  |  |  |  |  |  |  |  | STAT5 phosphorylation (pSTAT5) [2]: induced
3 | 202 (RTCTEWENVVLCWV) [Peptide 202] | +^1 (Peptide competes with phage binding.) | + (Peptide competes with phage binding.) | + (Peptide competes with phage binding.) | + (Peptide competes with phage binding.) | + (Peptide competes with phage binding.) | − |  |  |  |  |  | 
4 | 58 (YDCRIAQVGELCDL) [compound 58] |  |  |  |  |  |  |  |  |  |  |  | competition for binding to the binding site of the IL-2Rγc subunit with the group of IL-2Rγc ligands [1]: does not compete
5 | SEQ ID NO: 248 or 1051: IL-2Rγc family 3 test peptide, SEQ ID NO: 248 or its modified form SEQ ID NO: 1051 (DLSDLSTFWLSQ; not fully specified) | + (Peptide competes with phage binding.) | + (Peptide competes with phage binding.) | + (Peptide competes with phage binding.) | + (Peptide competes with phage binding.) | + (Peptide competes with phage binding.) | − |  |  |  |  |  | 
6 | 224 (DCSMWEGVELCW) [compound 224] |  |  |  |  |  |  |  |  |  |  |  | competition for binding to the binding site of the IL-2Rβ subunit with the group of IL-2Rβ ligands [3]: does not compete
7 | 236 (MCWLEWGEWVGSCL) [Peptide 236] | + (Peptide competes with phage binding.) | + (Peptide competes with phage binding.) | + (Peptide competes with phage binding.) | + (Peptide competes with phage binding.) | + (Peptide competes with phage binding.) | − |  |  |  |  |  | 
8 | 1042 (CYEVGDYCQSPL) [Peptide 1042] |  |  |  |  |  |  | + (Peptide competes with phage binding.) | + (Peptide competes with phage binding.) | + (Peptide competes with phage binding.) | + (Peptide competes with phage binding.) | − | 
9 | 169 (NMCLVGDYWPSCQI) [Peptide 169] |  |  |  |  |  |  | + (Peptide competes with phage binding.) | + (Peptide competes with phage binding.) | + (Peptide competes with phage binding.) | + (Peptide competes with phage binding.) | − | 
10 | 1041 (WESWNVGDLVNLVNW) [compound 1041] |  |  |  |  |  |  |  |  |  |  |  | competition for binding to the binding site of the IL-2Rβ subunit with the group of IL-2Rβ ligands [3]: does not compete
11 | 224 (DCSMWEGVELCW) [Peptide 224] | + (Peptide competes with phage binding.) | + (Peptide competes with phage binding.) | + (Peptide competes with phage binding.) | + (Peptide competes with phage binding.) | + (Peptide competes with phage binding.) | − | − | − | − | − | − | 
12 | 1044 (RSCYYKRPRLWCSE) [Peptide 1044] |  |  |  |  |  |  | −^2 | − | − | − | + (Peptide competes with phage binding.) | 
13 | 948 (SLLKCYNASTCASVF) [Peptide 948] | −^2 | − | − | − | − | + (Peptide competes with phage binding.) |  |  |  |  |  | 
14 | 1044 (RSCYYKRPRLWCSE) [compound 1044] |  |  |  |  |  |  |  |  |  |  |  | competition for binding to the binding site of the IL-2Rβ subunit with the group of IL-2Rβ ligands [3]: does not compete
15 | Compound A: heterodimer of SEQ. ID. NO: 58 and SEQ ID. NO. 224 (chain 1 YDCRIAQVGELCDL; chain 2 DCSMWEGVELCW; cysteine pairing not given here; also: heterodimer) |  |  |  |  |  |  |  |  |  |  |  | STAT5 phosphorylation (pSTAT5) [2]: induced
16 | 58 (YDCRIAQVGELCDL) [Peptide 58] | − | − | − | − | − | − | +^1 (Peptide competes with phage binding.) | + (Peptide competes with phage binding.) | + (Peptide competes with phage binding.) | + (Peptide competes with phage binding.) | − | 
